From the supplement of paper PMC9732359
± gives the uncertainty stated by the source.

assay: protein stability index of a GFP-peptide fusion (yeast GPS) (PSI 1-4); higher = more stable; sorted into four equal gates, so the index is relative within each strain; settings: san1∆
How it was run: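 Plasmids in a pooled yeast library fused tiled 17-residue yeast protein peptides downstream of GFP and also expressed Cherry. Mid-log cultures grown without leucine were sorted into four equal gates by GFP/Cherry fluorescence ratio. Each gate's plasmids were PCR-amplified and Illumina-sequenced, and reads were matched to strains by barcodes. The protein stability index is derived by multiplying each gate's read frequency by its gate number and summing the results.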

With EFMAGFNIISMTLKEMY [SMC4] as the sequence, how does the protein stability index read?
The protein stability index was 3.21 ± 0.11.

For EFYNEMHRPVHFLQFSE [PRP8], which protein stability index is on record?
Its protein stability index is 2.27 ± 0.067.

With EGDELENKTKKDNDKNL [SRB4] as the sequence, how does the protein stability index read?
The protein stability index was 3.23 ± 0.055.

For EGEAKQKRNAHGYFLQD [ITC1], which protein stability index is on record?
Its protein stability index is 3.35 ± 0.035.

For EGEYELTEAVEDGPRPF [RPL5], which protein stability index is on record?
The protein stability index was 3.38 ± 0.066.

With EGFAADDEPTTPAELVG [FAS1] as the sequence, how does the protein stability index read?
Its protein stability index is 3.2 ± 0.071.

Which protein stability index does the source give for EGGEAEFIFGTYNMIDA [ARP7] here?
The protein stability index was 2.52 ± 0.054.

Which protein stability index does the source give for EGLCIVAGSKCWAVRAD [RRP45] here?
The protein stability index was 2.53 ± 0.079.

For EGMFANANRVFRTRFQD [SMC2], which protein stability index is on record?
Its protein stability index is 2.68 ± 0.25.

Which protein stability index does the source give for EGQIIQRSNISTAIKSL [CDC53] here?
Its protein stability index is 2.46 ± 0.16.

For EGSWDRGIPRISTLFQR [PRP8], which protein stability index is on record?
The protein stability index was 3.24 ± 0.14.

With EGTRNRFSYSPPKEGNY [YMR129W/POM152] as the sequence, how does the protein stability index read?
Its protein stability index is 2.88 ± 0.043.

With EGVEYSFLHVDDKLAYI [POP8] as the sequence, how does the protein stability index read?
The protein stability index was 1.86 ± 0.11.

Which protein stability index does the source give for EHGYQSRGFEVMYNGHT [RPB2] here?
Its protein stability index is 2.88 ± 0.15.

With EHIKEGSEIAISSLGYR [SWI3] as the sequence, how does the protein stability index read?
The protein stability index was 2.99 ± 0.05.

With EIEMKNKLEKLNSLLTY [SMC4] as the sequence, how does the protein stability index read?
Its protein stability index is 1.85 ± 0.1.

Which protein stability index does the source give for EIEQPVTTFVFTGQGSQ [FAS1] here?
Its protein stability index is 2.49 ± 0.14.

For EIFDVTSNGLKKNPNWL [FAS1], which protein stability index is on record?
Its protein stability index is 2.64 ± 0.18.

With EIKDAETSCDNYHPMNI [SMC4] as the sequence, how does the protein stability index read?
The protein stability index was 3.15 ± 0.043.

Which protein stability index does the source give for EIKDGRSLFLRNRGKIH [YMR153W/NUP53] here?
Its protein stability index is 1.54 ± 0.16.

Which protein stability index does the source give for EINAVFNELCDPESRTQ [POP1] here?
The protein stability index was 2.75 ± 0.092.

With EIRPEMLGHYLGEFSIT [RPS15] as the sequence, how does the protein stability index read?
The protein stability index was 3.11 ± 0.19.

With EISKKDFVRKGGLQKGK [SIR3] as the sequence, how does the protein stability index read?
Its protein stability index is 1.98 ± 0.11.

With EITGTSCLTFFQALDSE [ITC1] as the sequence, how does the protein stability index read?
The protein stability index was 2.42 ± 0.1.

Which protein stability index does the source give for EKAIPKDQRATTPYMTK [RPO26] here?
The protein stability index was 2.97 ± 0.046.

For EKAKSAGTQSSKFSKQQ [RPL24A], which protein stability index is on record?
The protein stability index was 3.32 ± 0.047.

With EKASRQQRKQKKNRDKK [RPS24A] as the sequence, how does the protein stability index read?
The protein stability index was 3.25 ± 0.044.

With EKDCSLRAIEKNDDNSC [YIL149C/MLP2] as the sequence, how does the protein stability index read?
Its protein stability index is 3.06 ± 0.082.

Which protein stability index does the source give for EKELQNEIKQLGSDSSD [SRB4] here?
Its protein stability index is 2.27 ± 0.087.

Which protein stability index does the source give for EKESVEKQHENAVLELG [SMC3] here?
Its protein stability index is 2.9 ± 0.1.

For EKGKKVSGFKDEVLETV [RPS1B], which protein stability index is on record?
Its protein stability index is 3.48 ± 0.11.

For EKIKSKKINRRNETSVD [YCG1], which protein stability index is on record?
Its protein stability index is 3.19 ± 0.08.

For EKKDDNSSKPAFSFGAK [YJL041W/NSP1], which protein stability index is on record?
Its protein stability index is 2.02 ± 0.06.

For EKPAPVRTHMRNMIIVP [RPS15], which protein stability index is on record?
The protein stability index was 1.21 ± 0.19.

With EKQTPNKKDKKKEEEEQ [RPN1] as the sequence, how does the protein stability index read?
Its protein stability index is 3.01 ± 0.042.

With EKRATSPLLESDSIEKI [PUP2] as the sequence, how does the protein stability index read?
Its protein stability index is 3.29 ± 0.09.

For EKVFTQGLNILEWLENP [FAS1], which protein stability index is on record?
The protein stability index was 3.44 ± 0.054.

Which protein stability index does the source give for EKVNNNATLTPNDSNDE [SWI1] here?
The protein stability index was 3.11 ± 0.063.

With EKVTRYNRHKLQELIVN [RPO31] as the sequence, how does the protein stability index read?
The protein stability index was 1.82 ± 0.058.

With EKYEDEDEEKILDNTEN [DSN1] as the sequence, how does the protein stability index read?
Its protein stability index is 3.01 ± 0.26.

With EKYGKQVYDLLKRFPKM [BRR2] as the sequence, how does the protein stability index read?
The protein stability index was 2.99 ± 0.19.

For ELAINLIRFDESITKAM [SMC2], which protein stability index is on record?
Its protein stability index is 2.62 ± 0.09.

With ELDEHTTQIDLFRIFSM [BRR2] as the sequence, how does the protein stability index read?
Its protein stability index is 1.61 ± 0.15.

With ELGEKKNEKLKFQETLL [ISW2] as the sequence, how does the protein stability index read?
The protein stability index was 2.85 ± 0.11.

With ELKDLETQVEVEKNEIG [NNF1] as the sequence, how does the protein stability index read?
The protein stability index was 2.97 ± 0.17.

With ELKINLPLTEHKSPNLS [SRB4] as the sequence, how does the protein stability index read?
Its protein stability index is 2.87 ± 0.041.

Which protein stability index does the source give for ELKIRSKTENVRRLEAQ [RPT6] here?
The protein stability index was 1.58 ± 0.27.

For ELKPVSLDNKTLDDLVT [YJL041W/NSP1], which protein stability index is on record?
Its protein stability index is 3.09 ± 0.067.

For ELLAYQFASPVRWIETQ [FAS2], which protein stability index is on record?
The protein stability index was 1.92 ± 0.027.

For ELLEERFQDSNPYVRTK [YCS4], which protein stability index is on record?
The protein stability index was 2.82 ± 0.076.

For ELLRLANEQLKLFNRIV [CSN12], which protein stability index is on record?
The protein stability index was 1.64 ± 0.085.

Which protein stability index does the source give for ELLSKYKEQIIQGFYWA [SNU114] here?
Its protein stability index is 2.47 ± 0.077.

With ELMKLDGTEYVLSSVRE [MED6] as the sequence, how does the protein stability index read?
Its protein stability index is 3.16 ± 0.048.

With ELPKKLLNLPPFQVSSF [SRB8] as the sequence, how does the protein stability index read?
The protein stability index was 1.9 ± 0.055.

With ELRFPSPTPIQRITIPN [PRP28] as the sequence, how does the protein stability index read?
Its protein stability index is 1.85 ± 0.081.

With ELSRIENEVENINATNT [YCS4] as the sequence, how does the protein stability index read?
The protein stability index was 3.23 ± 0.053.

With ELTAQGYDPALLNILSG [RPN2] as the sequence, how does the protein stability index read?
Its protein stability index is 2.58 ± 0.071.

With ELVTISWVQPRIISGDQ [RPN9] as the sequence, how does the protein stability index read?
Its protein stability index is 2.27 ± 0.12.

Which protein stability index does the source give for EMGYLIQISKLHYTPIE [RPC82] here?
The protein stability index was 1.95 ± 0.13.

With EMKTQAAELQEKPLTPL [SNF6] as the sequence, how does the protein stability index read?
The protein stability index was 2.8 ± 0.088.

With EMMKMMQDPQMQQMAKQ [SRP54] as the sequence, how does the protein stability index read?
Its protein stability index is 2.77 ± 0.039.

With ENAYDNPLADAEEALEP [PRE4] as the sequence, how does the protein stability index read?
Its protein stability index is 3.1 ± 0.063.

For ENDHERGFFHLNEALLQ [CSN12], which protein stability index is on record?
Its protein stability index is 3.28 ± 0.09.

Which protein stability index does the source give for ENDLSFALMRYYDRKEE [RRI2] here?
Its protein stability index is 2.97 ± 0.071.

Which protein stability index does the source give for ENEMIKPMNKGQHKNNT [SWP82] here?
The protein stability index was 3.33 ± 0.09.

For ENFLKEVFQLRIFVKEI [GAL11], which protein stability index is on record?
Its protein stability index is 1.95 ± 0.063.

With ENGDYAACEKLLPPIKI [RPN12] as the sequence, how does the protein stability index read?
Its protein stability index is 1.89 ± 0.21.

For ENGLQLSDNAKTLHSQM [RPC34], which protein stability index is on record?
The protein stability index was 3.27 ± 0.07.

For ENGRRINELTLLVQKRF [RPS3], which protein stability index is on record?
Its protein stability index is 3.55 ± 0.13.

Which protein stability index does the source give for ENMWPFSYQEVEFKLPK [CDC53] here?
The protein stability index was 1.34 ± 0.076.

With ENNSDSNSNNNGNKDSS [SWI1] as the sequence, how does the protein stability index read?
The protein stability index was 3.05 ± 0.06.

Which protein stability index does the source give for ENPTDNFIIWINSIDTT [GRR1] here?
The protein stability index was 2.61 ± 0.049.

Which protein stability index does the source give for ENSEPPALESSPVTGDN [SNF2] here?
The protein stability index was 3.19 ± 0.067.

For ENTKDNLVKEKEALQNN [SMC1], which protein stability index is on record?
The protein stability index was 3.45 ± 0.13.

same assay, conditions: ubr1∆

For EERFSELFKGYLADDID [RPL5], which protein stability index is on record?
Its protein stability index is 3.01 ± 0.28.
